Experimental data published in US20150368299A1.

Experiments:
[1] = molecular target: platelet factor 4 (PF-4) in Cynomolgus monkey plasma (cynomolgus monkey (Macaca fascicularis)); experiment: aligned sandwich ELISA with cynomolgus plasma; AUC of the reference anti-HPF4 antibody over AUC of this antibody
[2] = molecular target: human platelet factor 4 (HPF4) in human plasma spiked with human PF4 (human) (UniProt P02776); experiment: sandwich ELISA with HPF4-spiked human plasma; AUC of the reference anti-HPF4 antibody over AUC of this antibody
[3] = molecular target: human platelet factor 4 (HPF4) in human plasma spiked with human PF4 (human) (UniProt P02776); experiment: aligned sandwich ELISA with HPF4-spiked human plasma; AUC of the reference anti-HPF4 antibody over AUC of this antibody
[4] = molecular target: platelet factor 4 (PF-4) in Cynomolgus monkey plasma (cynomolgus monkey (Macaca fascicularis)); experiment: sandwich ELISA with cynomolgus plasma; AUC of the reference anti-HPF4 antibody over AUC of this antibody
[5] = molecular target: Aβ(1-42) globulomer (human) (UniProt P05067); experiment: dot blot with densitometry; Aβ form dotted on nitrocellulose in serial dilution, antibody 0.2 µg/ml; higher value = weaker recognition
[6] = molecular target: Aβ(1-40) monomer in 0.1% NaOH (human); experiment: as above
[7] = molecular target: Aβ(1-42) fibril (human) (UniProt P05067); experiment: as above
[8] = molecular target: Aβ(1-40) monomer in 0.1% NH4OH (human); experiment: as above
[9] = molecular target: Aβ(1-42) monomer in 0.1% NaOH (human); experiment: as above
[10] = molecular target: Aβ(1-42) monomer in 0.1% NH4OH (human); experiment: as above
Chain of Aβ(1-42) monomer in 0.1% NH4OH (human) (peptide, as listed by the source): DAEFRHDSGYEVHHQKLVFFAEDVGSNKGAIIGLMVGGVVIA

Chain of human platelet factor 4 (HPF4) in human plasma spiked with human PF4 (human) (P02776 32-101): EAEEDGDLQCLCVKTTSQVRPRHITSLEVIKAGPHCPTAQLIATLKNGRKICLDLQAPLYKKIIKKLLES
Chain of platelet factor 4 (PF-4) in Cynomolgus monkey plasma (cynomolgus monkey (Macaca fascicularis)) (chain, as listed by the source): as the sequence (P02776 32-101) above, with I64V counted along it
Chain of Aβ(1-40) monomer in 0.1% NH4OH (human) (peptide, as listed by the source): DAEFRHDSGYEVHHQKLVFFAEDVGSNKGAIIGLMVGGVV

Ratio HPF4/aAβ antibody (PF4 discrimination factor) [1] | Ratio HPF4/aAβ antibody (PF4 discrimination factor) [2] | Ratio HPF4/aAβ antibody (PF4 discrimination factor) [3] | Ratio HPF4/aAβ antibody (PF4 discrimination factor) [4] | dot blot relation of recognition of Aβ(20-42) globulomer to recognition of this Aβ form [5] | dot blot relation of recognition of Aβ(20-42) globulomer to recognition of this Aβ form [6] | dot blot relation of recognition of Aβ(20-42) globulomer to recognition of this Aβ form [7] | dot blot relation of recognition of Aβ(20-42) globulomer to recognition of this Aβ form [8] | dot blot relation of recognition of Aβ(20-42) globulomer to recognition of this Aβ form [9] | dot blot relation of recognition of Aβ(20-42) globulomer to recognition of this Aβ form [10] | Substance
1 | 1 | 1 | 1 | – | – | – | – | – | – | Anti-HPF4 monoclonal antibody (Abcam Cat. No. ab49735)
325 | 331 | 118 | 517 | – | – | – | – | – | – | Monoclonal antibody clone mIgG2a
– | – | – | – | 0.09 | 20 | 29 | 3 | 10 | 10 | Anti-Aβ monoclonal antibody clone 6E10 (Covance cat. no. SIG-39320)
